Data reported in patent US20050079494A1 (MONSANTO TECHNOLOGY, published 2005).

Legend:
[1] = biological target: the molecule itself; test: self-assembly in E. coli; 5-25% sucrose density gradient, SDS-PAGE with Coomassie or anti-FLAG M2 western blot
Procedure: (§1) To characterize the expression of the wild-type and epitope-tagged (mature) glycinin A₁ₐB1b protein in E. coli, plasmids pMON65950, pMON65951, and pMON65952 are transformed into E. coli Origami™ (DE3) competent cells according to manufacturer's instructions (Novagen). A single colony is used to inoculate 2 ml LB medium. The culture is grown at 37° C. until a cell density corresponding to A₆₀₀=0.6 is achieved. An amount corresponding to a final concentration of 1 mM isopropyl-1-thio-β-D-galactopyranoside (IPTG) is added to induce protein expression and the culture is incubated at temperatures ranging from 20° to 37° C. at 225 rpm for time periods up to 20 hours. Cells are harvested by centrifugation at 5,000 rpm for 15 min at 4° C. The cell pellet is re-suspended in protein extraction buffer consisting of 20 mM Tris-HCl, pH 7.4, 0.4 M NaCl, 0.1% TritonX-100, 40 μl/ml Protease Inhibitor Cocktail, (stock: 1 tablet/2 ml, Boehringer Mannheim, Indianapolis, Ind.). The cells are then disrupted by sonication (Branson Sonifier 450, Branson Precision Processing, Danbury, Conn.) while maintaining at cold temperature with ice. Soluble proteins are separated from the insoluble fraction by centrifugation at 13,000 rpm for 5 minutes. […]

[2] = biological target: the molecule itself; test: self-assembly in E. coli; sucrose density gradient, anti-FLAG western blot of fractions
Procedure: To determine if the recombinant forms of glycinin A₁ₐB1b expressed in E. coli from […], pMON65951, and pMON65952 could self-assemble to form trimers, aliquots of the soluble protein fraction from E. coli lysates are layered onto 12 ml of a 5-25% sucrose density gradient, and centrifuged at 36,000 rpm for 17.5 hours at 20° C. (Sorvall TH-641 rotor; Sorvall Ultra Pro 80 ultracentrifuge). Following centrifugation, the gradient is divided into fractions using a Labconco Autodensi-Flow instrument (Labconco, Kansas City, Mo.), and each fraction is analyzed by SDS-polyacrylamide gel electrophoresis followed either by Coomassie staining or by western blot analysis using Anti-FLAG M2 antibody (Stratagene Corporation, La Jolla, Calif.), to determine which fractions contained glycinin A₁ₐB1b. 7S and 11S soy protein fractions, as well as ovalbumin (45 kD) and aldolase (158 kD), are run as size markers on separate gradients.
This example sets forth confirmation of the protein structure from the expression of modified glycinin A₁ₐB1b clones. The assembly properties of the following modified forms of the protein (indicated by mutant ID number), each containing a different isoleucine substitution, are determined as described in Example 3. Western blot analysis of sucrose gradient fractions is carried out as in Example 3 using anti-FLAG antibody for each of mutants G1-4 through G13-2.

[3] = biological target: the molecule itself; test: self-assembly in E. coli; 5-25% sucrose density gradient, SDS-PAGE with Coomassie staining
Procedure: as §1

Row | Protein | binding result [2] | other results
1 | carboxy-terminal epitope (FLAG)-tagged form of glycinin A1aB1b encoded by pMON65952 (other, Mature glycinin A1aB1b with C-terminal FLAG, made in E. coli; self-assembles to trimers; Template of the isoleucine mutants; also called pMON65952 protein) MFSSREQPQQNECQIQKLNALKPDNRIESEGGLIETWNPNNKPFQCAGVALSRCTLNRNALRRPSYTNGPQEIYIQQGKGIFGMIYPGCPSTFEEPQQPQQRGQSSRPQDRHQKIYNFREGDLIAVPTGVAWWMYNNEDTPVVAVSIIDTNSLENQLDQMPRRFYLAGNQEQEFLKYQQEQGGHQSQKGKHQQEEENEGGSILSGFTLEFLEHAFSVDKQIAKNLQGENEGEDKGAIVTVKGGLSVIKPPTDEQQQRPQEEEEEEEDEKPQCKGKDKHCQRPRGSQSKSRRNGIDETICTMRLRHNIGQTSSPDIYNPQAGSVTTATSLDFPALSWLRLSAEFGSLRKNAMFVPHYNLNANSIIYALNGRALIQVVNCNGERVFDGELQEGRVLIVPQNFVVAARSQSDNFEYVSFKTNDTPMIGTLAGANSLLNALPEEVIQHTFNLKSQQARQIKNNNPFKFLVPPQESQKRAVADYKDDDDK | – | binding result [1]: binds
2 | glycinin A1aB1b mutant g3-5 (other) FSSREQPQQNECQIQKLNAIKPDNRIESEGGLIETWNPNNKPFQCAGVALSRCTLNRNALRRPSYTNGPQEIYIQQGKGIFGMIYPGCPSTFEEPQQPQQRGQSSRPQDRHQKIYNFREGDIIAVPTGVAWWMYNNEDTPVVAVSIIDTNSIENQLDQMPRRFYLAGNQEQEFLKYQQEQGGHQSQKGKHQQEEENEGGSILSGFTLEFLEHAFSVDKQIAKNLQGENEGEDKGAIVTVKGGLSVIKPPTDEQQQRPQEEEEEEEDEKPQCKGKDKHCQRPRGSQSKSRRNGIDETICTMRLRHNIGQTSSPDIYNPQAGSVTTATSLDFPAISWLRLSAEFGSIRKNAMFVPHYNLNANSIIYAINGRALIQVVNCNGERVFDGELQEGRVLIVPQNFVVAARSQSDNFEYVSFKTNDTPMIGTLAGANSLLNALPEEVIQHTFNLKSQQARQIKNNNPFKFLVPPQESQKRAVADYKDDDDK | no binding | –
3 | glycinin A1aB1b mutant g6-4 (other) FSSREQPQQNECQIQKLNAIKPDNRIESEGGLIETWNPNNKPFQCAGVALSRCTLNRNALRRPSYTNGPQEIYIQQGKGIFGMIYPGCPSTFEEPQQPQQRGQSSRPQDRHQKIYNFREGDLIAVPTGVAWWMYNNEDTPVVAVSIIDTNSIENQLDQMPRRFYLAGNQEQEFLKYQQEQGGHQSQKGKHQQEEENEGGSILSGFTLEFLEHAFSVDKQIAKNLQGENEGEDKGAIVTVKGGLSVIKPPTDEQQQRPQEEEEEEEDEKPQCKGKDKHCQRPRGSQSKSRRNGIDETICTMRLRHNIGQTSSPDIYNPQAGSVTTATSLDFPAISWLRLSAEFGSIRKNAMFVPHYNLNANSIIYAINGRALIQVVNCNGERVFDGELQEGRVLIVPQNFVVAARSQSDNFEYVSFKTNDTPMIGTLAGANSLLNALPEEVIQHTFNLKSQQARQIKNNNPFKFLVPPQESQKRAVADYKDDDDK | no binding | –
4 | glycinin A1aB1b mutant g6-7 (other) FSSREQPQQNECQIQKLNAIKPDNRIESEGGLIETWNPNNKPFQCAGVALSRCTLNRNALRRPSYTNGPQEIYIQQGKGIFGMIYPGCPSTFEEPQQPQQRGQSSRPQDRHQKIYNFREGDIIAVPTGVAWWMYNNEDTPVVAVSIIDTNSLENQLDQMPRRFYLAGNQEQEFLKYQQEQGGHQSQKGKHQQEEENEGGSILSGFTLEFLEHAFSVDKQIAKNLQGENEGEDKGAIVTVKGGLSVIKPPTDEQQQRPQEEEEEEEDEKPQCKGKDKHCQRPRGSQSKSRRNGIDETICTMRLRHNIGQTSSPDIYNPQAGSVTTATSLDFPAISWLRLSAEFGSIRKNAMFVPHYNLNANSIIYAINGRALIQVVNCNGERVFDGELQEGRVLIVPQNFVVAARSQSDNFEYVSFKTNDTPMIGTLAGANSLLNALPEEVIQHTFNLKSQQARQIKNNNPFKFLVPPQESQKRAVADYKDDDDK | no binding | –
5 | glycinin A1aB1b mutant g10-10 (other) FSSREQPQQNECQIQKLNALKPDNRIESEGGLIETWNPNNKPFQCAGVALSRCTLNRNAIRRPSYTNGPQEIYIQQGKGIFGMIYPGCPSTFEEPQQPQQRGQSSRPQDRHQKIYNFREGDLIAVPTGVAWWMYNNEDTPVVAVSIIDTNSLENQLDQMPRRFYLAGNQEQEFLKYQQEQGGHQSQKGKHQQEEENEGGSILSGFTLEFLEHAFSVDKQIAKNLQGENEGEDKGAIVTVKGGLSVIKPPTDEQQQRPQEEEEEEEDEKPQCKGKDKHCQRPRGSQSKSRRNGIDETICTMRIRHNIGQTSSPDIYNPQAGSVTTATSLDFPALSWIRLSAEFGSLRKNAMFVPHYNLNANSIIYALNGRALIQVVNCNGERVFDGELQEGRVIIVPQNFVVAARSQSDNFEYVSFKTNDTPMIGTLAGANSLLNALPEEVIQHTFNLKSQQARQIKNNNPFKFLVPPQESQKRAVADYKDDDDK | no binding | –
6 | mature form (plus additional methionine encoded by start codon) of glycinin A1aB1b encoded by pMON65950 (other, Soybean seed storage protein subunit made in E. coli Origami (DE3), no FLAG tag; also called wild-type (mature) glycinin A1aB1b; native form) MFSSREQPQQNECQIQKLNALKPDNRIESEGGLIETWNPNNKPFQCAGVALSRCTLNRNALRRPSYTNGPQEIYIQQGKGIFGMIYPGCPSTFEEPQQPQQRGQSSRPQDRHQKIYNFREGDLIAVPTGVAWWMYNNEDTPVVAVSIIDTNSLENQLDQMPRRFYLAGNQEQEFLKYQQEQGGHQSQKGKHQQEEENEGGSILSGFTLEFLEHAFSVDKQIAKNLQGENEGEDKGAIVTVKGGLSVIKPPTDEQQQRPQEEEEEEEDEKPQCKGKDKHCQRPRGSQSKSRRNGIDETICTMRLRHNIGQTSSPDIYNPQAGSVTTATSLDFPALSWLRLSAEFGSLRKNAMFVPHYNLNANSIIYALNGRALIQVVNCNGERVFDGELQEGRVLIVPQNFVVAARSQSDNFEYVSFKTNDTPMIGTLAGANSLLNALPEEVIQHTFNLKSQQARQIKNNNPFKFLVPPQESQKRAVA | – | binding result [3]: binds
7 | amino-terminal epitope (FLAG)-tagged form of glycinin A1aB1b encoded by pMON65951 (other, Mature glycinin A1aB1b with start Met and N-terminal FLAG, made in E. coli; self-assembles to trimers; also called pMON65951 protein) MDYKDDDDKFSSREQPQQNECQIQKLNALKPDNRIESEGGLIETWNPNNKPFQCAGVALSRCTLNRNALRRPSYTNGPQEIYIQQGKGIFGMIYPGCPSTFEEPQQPQQRGQSSRPQDRHQKIYNFREGDLIAVPTGVAWWMYNNEDTPVVAVSIIDTNSLENQLDQMPRRFYLAGNQEQEFLKYQQEQGGHQSQKGKHQQEEENEGGSILSGFTLEFLEHAFSVDKQIAKNLQGENEGEDKGAIVTVKGGLSVIKPPTDEQQQRPQEEEEEEEDEKPQCKGKDKHCQRPRGSQSKSRRNGIDETICTMRLRHNIGQTSSPDIYNPQAGSVTTATSLDFPALSWLRLSAEFGSLRKNAMFVPHYNLNANSIIYALNGRALIQVVNCNGERVFDGELQEGRVLIVPQNFVVAARSQSDNFEYVSFKTNDTPMIGTLAGANSLLNALPEEVIQHTFNLKSQQARQIKNNNPFKFLVPPQESQKRAVA | – | binding result [1]: binds
